Measurements: US7527793 (RUSH UNIVERSITY MEDICAL CENTER, dated 2009)

B1: CD33 peptide TIQLNVTYV (residues 226-234, SEQ ID NO: 9) (peptide)
peptide: TIQLNVTYV
notes: Native CD33 nonamer, extracellular domain; also called CD33226-234

The binders below were run against T1, HLA-A2.1 on T2 cells (human) (assay: peptide binding to HLA-A2.1+ T2 cells, complex stability; no Brefeldin A (T2 alone 215)).
T1 construct: Peptide-receptive HLA-A2.1 on T2 cells; also called HLA-A2.1 MHC class I molecules

Binder | binding score (HLA-A2.1 on T2 cells)
YIISGDSPV (Modified CD33 peptide) [YIISGDSPV (SEQ ID NO: 3)] | 547
YIIIGDSPV (Modified CD33 peptide) [YIIIGDSPV (SEQ ID NO: 11)] | 263
YIISGDLPV (Modified CD33 peptide) [YIISGDLPV (SEQ ID NO: 13)] | 619
YIISGDSPL (Modified CD33 peptide) [YIISGDSPL (SEQ ID NO: 15)] | 428
YIILGDSPV (Modified CD33 peptide) [YIILGDSPV (SEQ ID NO: 12)] | 465
YIISGISPV (Modified CD33 peptide) [YIISGISPV (SEQ ID NO: 6)] | 591
ALISGDSPV (Modified CD33 peptide) [ALISGDSPV (SEQ ID NO: 16)] | 603
YIISGDSWV (Modified CD33 peptide) [YIISGDSWV (SEQ ID NO: 14)] | 209
YLISGDSPV (Modified CD33 peptide) [YLISGDSPV (SEQ ID NO: 7)] | 701
YIGSGDSPV (Modified CD33 peptide) [YIGSGDSPV (SEQ ID NO: 10)] | 515
B1 | 175

What follows are binders tested against T1, HLA-A2.1 on T2 cells (assay: peptide binding to HLA-A2.1+ T2 cells, complex stability; Brefeldin A 6 hr (T2 alone 157)).

Binder | binding score (HLA-A2.1 on T2 cells)
YIISGDSPV (Modified CD33 peptide) [YIISGDSPV (SEQ ID NO: 3)] | 216
YIIIGDSPV (Modified CD33 peptide) [YIIIGDSPV (SEQ ID NO: 11)] | 172
YIISGDLPV (Modified CD33 peptide) [YIISGDLPV (SEQ ID NO: 13)] | 203
YIISGDSPL (Modified CD33 peptide) [YIISGDSPL (SEQ ID NO: 15)] | 168
YIILGDSPV (Modified CD33 peptide) [YIILGDSPV (SEQ ID NO: 12)] | 173
YIISGISPV (Modified CD33 peptide) [YIISGISPV (SEQ ID NO: 6)] | 680
ALISGDSPV (Modified CD33 peptide) [ALISGDSPV (SEQ ID NO: 16)] | 609
YIISGDSWV (Modified CD33 peptide) [YIISGDSWV (SEQ ID NO: 14)] | 173
YLISGDSPV (Modified CD33 peptide) [YLISGDSPV (SEQ ID NO: 7)] | 594
YIGSGDSPV (Modified CD33 peptide) [YIGSGDSPV (SEQ ID NO: 10)] | 151
B1 | 159

What follows are binders tested against T1, HLA-A2.1 on T2 cells (assay: peptide binding to HLA-A2.1+ T2 cells, complex stability; Brefeldin A overnight (T2 alone 255)).

Binder | binding score (HLA-A2.1 on T2 cells)
YIISGDSPV (Modified CD33 peptide) [YIISGDSPV (SEQ ID NO: 3)] | 248
YIIIGDSPV (Modified CD33 peptide) [YIIIGDSPV (SEQ ID NO: 11)] | 325
YIISGDLPV (Modified CD33 peptide) [YIISGDLPV (SEQ ID NO: 13)] | 296
YIISGDSPL (Modified CD33 peptide) [YIISGDSPL (SEQ ID NO: 15)] | 157
YIILGDSPV (Modified CD33 peptide) [YIILGDSPV (SEQ ID NO: 12)] | 323
YIISGISPV (Modified CD33 peptide) [YIISGISPV (SEQ ID NO: 6)] | 593
ALISGDSPV (Modified CD33 peptide) [ALISGDSPV (SEQ ID NO: 16)] | 366
YIISGDSWV (Modified CD33 peptide) [YIISGDSWV (SEQ ID NO: 14)] | 298
YLISGDSPV (Modified CD33 peptide) [YLISGDSPV (SEQ ID NO: 7)] | 479
B1 | 404

Each binder was assayed against T1, HLA-A2.1 on T2 cells (assay: peptide binding to HLA-A2.1+ T2 cells, complex stability; Brefeldin A 2 hr (T2 alone 200)).

Binder | binding score (HLA-A2.1 on T2 cells)
YIISGDSPV (Modified CD33 peptide) [YIISGDSPV (SEQ ID NO: 3)] | 588
YIIIGDSPV (Modified CD33 peptide) [YIIIGDSPV (SEQ ID NO: 11)] | 257
YIISGDLPV (Modified CD33 peptide) [YIISGDLPV (SEQ ID NO: 13)] | 524
YIISGDSPL (Modified CD33 peptide) [YIISGDSPL (SEQ ID NO: 15)] | 334
YIILGDSPV (Modified CD33 peptide) [YIILGDSPV (SEQ ID NO: 12)] | 315
YIISGISPV (Modified CD33 peptide) [YIISGISPV (SEQ ID NO: 6)] | 929
ALISGDSPV (Modified CD33 peptide) [ALISGDSPV (SEQ ID NO: 16)] | 882
YIISGDSWV (Modified CD33 peptide) [YIISGDSWV (SEQ ID NO: 14)] | 247
YLISGDSPV (Modified CD33 peptide) [YLISGDSPV (SEQ ID NO: 7)] | 810
B1 | 173

Each binder was assayed against T1, HLA-A2.1 on T2 cells (assay: peptide binding to HLA-A2.1+ T2 cells, complex stability; Brefeldin A 4 hr (T2 alone 187)).

Binder | binding score (HLA-A2.1 on T2 cells)
YIISGDSPV (Modified CD33 peptide) [YIISGDSPV (SEQ ID NO: 3)] | 380
YIIIGDSPV (Modified CD33 peptide) [YIIIGDSPV (SEQ ID NO: 11)] | 208
YIISGDLPV (Modified CD33 peptide) [YIISGDLPV (SEQ ID NO: 13)] | 307
YIISGDSPL (Modified CD33 peptide) [YIISGDSPL (SEQ ID NO: 15)] | 217
YIILGDSPV (Modified CD33 peptide) [YIILGDSPV (SEQ ID NO: 12)] | 205
YIISGISPV (Modified CD33 peptide) [YIISGISPV (SEQ ID NO: 6)] | 839
ALISGDSPV (Modified CD33 peptide) [ALISGDSPV (SEQ ID NO: 16)] | 692
YIISGDSWV (Modified CD33 peptide) [YIISGDSWV (SEQ ID NO: 14)] | 208
YLISGDSPV (Modified CD33 peptide) [YLISGDSPV (SEQ ID NO: 7)] | 745
YIGSGDSPV (Modified CD33 peptide) [YIGSGDSPV (SEQ ID NO: 10)] | 167
B1 | 180

These binders were tested against T1, HLA-A2.1 on T2 cells (assay: T2 peptide binding assay with beta2-microglobulin, anti-HLA-A2.1 staining, flow cytometry; index against T2 + beta2-microglobulin only (1.0)).
Description: T2 cells were washed and resuspended in serum-free AIM-V™ (Gibco-Life Technologies, Rockville, Md.) at a final concentration of 1 ×10^6 cells/ml and transferred into a 24-well tissue culture plate. […] After incubation, cells were washed once with PBS containing 3% FCS, and stained with mouse anti-HLA-A2.1 monoclonal antibody for 15 minutes at 4° C. After washing, the cells were incubated with goat anti-mouse IgG (F(ab')_2)-FITC for 15 minutes at 4° C. The cells were washed once, and fluorescence was measured on a FACSort™ flow cytometer (Becton Dickson, San Jose, Calif.). The fluorescence index was calculated as follows: (mean channel fluorescence of sample–mean channel fluorescence of unstained control cells)/mean channel fluorescence of unstained control cells.

Binder | Fluorescence Index
ALLALCLCL (also called CD33269-277) [CD33 peptide ALLALCLCL (residues 269-277, SEQ ID NO: 8)] | 1.04
B1 | 0.99

Each binder was assayed against T1, HLA-A2.1 on T2 cells (assay: peptide binding to HLA-A2.1+ T2 cells, complex stability; Brefeldin A 0 hr (T2 alone 226)).

Binder | binding score (HLA-A2.1 on T2 cells)
YIISGDSPV (Modified CD33 peptide) [YIISGDSPV (SEQ ID NO: 3)] | 641
YIIIGDSPV (Modified CD33 peptide) [YIIIGDSPV (SEQ ID NO: 11)] | 301
YIISGDLPV (Modified CD33 peptide) [YIISGDLPV (SEQ ID NO: 13)] | 724
YIISGDSPL (Modified CD33 peptide) [YIISGDSPL (SEQ ID NO: 15)] | 426
YIILGDSPV (Modified CD33 peptide) [YIILGDSPV (SEQ ID NO: 12)] | 488
YIISGISPV (Modified CD33 peptide) [YIISGISPV (SEQ ID NO: 6)] | 840
ALISGDSPV (Modified CD33 peptide) [ALISGDSPV (SEQ ID NO: 16)] | 677
YIISGDSWV (Modified CD33 peptide) [YIISGDSWV (SEQ ID NO: 14)] | 247
YLISGDSPV (Modified CD33 peptide) [YLISGDSPV (SEQ ID NO: 7)] | 728
YIGSGDSPV (Modified CD33 peptide) [YIGSGDSPV (SEQ ID NO: 10)] | 687
B1 | 218
